Reference: patent US20200095333A1

Target: human serum albumin (HSA) (human) (UniProt P02768)
Assay: HSA binding class, Table 23

For “ABD L64G/I65A/V71A (from UniProt P19909 254-299)”, the HSA binding was less than 0.1.
